# Source: patent US20080125362A1, “Method of screening compound preventing cells from infection with Hepatitis C virus (HCV)” (Japan Tobacco Inc., priority 2004, published 2008)
# Legend:
# [1] = test system: ΔG/SEAP/HCV E1E2; assay: Effects of solubilized FGFR-1 to FGFR-4 (FGFR/Fc) on infectivity of pseudotyped HCV to HepG2 cells; format: cell-based; conditions: FGFR/Fc mixed with virus 1 hour before inoculation, FIG. 5
# [2] = test system: ΔG/SEAP/HCV E1E2; assay: Effects of FGF family members on infectivity of pseudotyped HCV to HepG2 cells (SEAP reporter); format: cell-based; conditions: for IC50 ΔG/SEAP/HCV E1E2: growth factor added 1 hour before virus, SEAP in supernatant after 24 hours; for infection of ΔG/SEAP/HCV E1E2: result in words
Molecule,infectivity of ΔG/SEAP/HCV E1E2 [1],IC50 ΔG/SEAP/HCV E1E2 [2] [µg/mL],infection of ΔG/SEAP/HCV E1E2 [2]
FGFR-4,inhibited,,
"human FGF 2 (basic): human-derived fibroblast growth factor 2 (basic), commercial product of Pepro Tech",,1.36,inhibited
"human FGF 18: human-derived fibroblast growth factor 18, commercial product of Pepro Tech",,>10,
"human FGF 20: human-derived fibroblast growth factor 20, commercial product of Pepro Tech",,>10,
"human FGF 7 (KGF): human-derived fibroblast growth factor 7 (KGF), commercial product of Pepro Tech (protein) CNDMTPEQMATNVNCSSPERHTRSYDYMEGGDIRVRRLFCRTQWYLRIDKRGKVKGTQEMKNNYNIMEIRTVAVGIVAIKGVESEFYLAMNKEGKLYAKKECNEDCNFKELILENHYNTYASAKWTHNGGEMFVALNQKGIPVRGKKTKKEQKTAHFLPMAIT",,2.32,inhibited
"human FGF 10: human-derived fibroblast growth factor 10, commercial product of Pepro Tech (protein) LGQDMVSPEATNSSSSSFSSPSSAGRHVRSYNHLQGDVRWRKLFSFTKYFLKIEKNGKVSGTKKENCPYSILEITSVEIGVVAVKAINSNYYLAMNKKGKLYGSKEFNNDCKLKERIEENGYNTYASFNWQHNGRQMYVALNGKGAPRRGQKTRRKNTSAHFLPMVVHS",,>10,
"human FGF 17: human-derived fibroblast growth factor 17, commercial product of Pepro Tech (protein) TQGENHPSPNFNQYVRDQGAMTDQLSRRQIREYQLYSRTSGKHVQVTGRRISATAEDGNKFAKLIVETDTFGSRVRIKGAESEKYICMNKRGKLIGKPSGKSKDCVFTEIVLENNYTAFQNARHEGWFMAFTRQGRPRQASRSRQNQREAHFIKRLYQGQLPFPNHAEKQKQFEFVGSAPTRRTKRTRRPQPLT",,7.41,inhibited
"human FGF 8: human-derived fibroblast growth factor 8, commercial product of Pepro Tech (protein) QVTVQSSPNFTQHVREQSLVTDQLSRRLIRTYQLYSRTSGKHVQVLANKRINAMAEDGDPFAKLIVETDTFGSRVRVRGAETGLYICMNKKGKLIAKSNGKGKDCVFTEIVLENNYTALQNAKYEGWYMAFTRKGRPRKGSKTRQHQREVHFMKRLPRGHHTTEQSLRFEFLNYPPFTRSLRGSQRTWAPEPR",,8.51,inhibited
